The values below come from patent US20220195023A1.

The target of assay [1] is (NANP)6 (Plasmodium falciparum). Kind of assay: BLI, target on sensor.
For assay [2], the target named is (NPNA)3 (Plasmodium falciparum). In words: BLI, target on sensor.
The target in assay [3] is (NVDP)3(NANP)2 (Plasmodium falciparum). In words: BLI, target on sensor.
Assay [4] addresses NANPNVDP (Plasmodium falciparum). Kind of assay: BLI, target on sensor.
In assay [5] the target is … (Plasmodium falciparum). Kind of assay: BLI, target on sensor.
Assay [6] has as its target (NANP)6 (Plasmodium falciparum). Kind of assay: SPR, antibody on chip.
Assay [7] has as its target (NPNA)3 (Plasmodium falciparum). In words: SPR, antibody on chip.
The target of assay [8] is (NVDP)3(NANP)2 (Plasmodium falciparum). Kind of assay: SPR, antibody on chip.
Assay [9] has as its target … (Plasmodium falciparum). In words: SPR, antibody on chip.

B1: AB-007047 (antibody, V domains shown)
VH: QMQLVESGGGVVQPGRSLRLSCTASGFTFSNYAMHWVRQSPGQGLQWVAVISYHSTNKYYEDSVRGRFTISRDNSKNTLYLQMNSLRAEDTAVYYCARDGYSSSFFDFWGQGTLVTVSS
VL: DIQMTQSPSTLSASVGDRVAITCRASQSISRWLAWYQQQPGKAPKLLMSGASVLESGVPSRFSGSGSGTEFTLTISSLQPDDFATYYCQHYNSYFVTFGQGTKVEIK
As for B1, the Kd in assay [1] turned out to be 1.32 nM; in assay [2], 0.567 nM; in assay [3], 8.11 nM; in assay [4], 10 nM; in assay [5] it was 5.43 nM; in [6] it was 0.156 nM. In addition, the figures for the Kd in [7], in assay [8] and in [9] were 11.4 nM, 3680 nM and 9370 nM, respectively.

B2: AB-007054 (antibody, V domains shown)
VH: QMQLVESGGGVVQPGRSLRLSCTASGFTFSTYAMHWVRQSPGQGLQWVAVISYHSTNKYYEDSVRGRFTISRDNSKNTLYLQMNSLRAEDTAVYYCARDGYASSFFDFWGQGTLVTVSS
VL: DIQMTQSPSTLSASVGDRVAITCRASQSISRWLAWYQQQPGKAPKLLMSGASVLESGVPSRFSGSGSGTEFTLTISSLQPDDFATYYCQHYNSYFVTFGQGTKVEIK
For the molecule B2, the Kd stood at 1.72 nM in [1]; 0.61 nM in assay [2]; 10.2 nM in assay [3]; 13.7 nM in [4]; 8.5 nM in assay [5]; 0.0552 nM in assay [6]. Further, the Kd in assay [7] was determined as 10.5 nM; in assay [8], 5670 nM; in assay [9] it was 17600 nM.

B3: AB-007051 (antibody, V domains shown)
VH: QMQLVESGGGVVQPGRSLRLSCTASGFTFSTYAMHWVRQSPGQGLQWVAVISYHSRNKYYEDSVRGRFTISRDNSKNTLYLQMNSLRAEDTAVYYCARDGYSSSFFDFWGQGTLVTVSS
VL: DIQMTQSPSTLSASVGDRVAITCRASQSISRWLAWYQQQPGKAPKLLMSGASVLESGVPSRFSGSGSGTEFTLTISSLQPDDFATYYCQHYNSYFVTFGQGTKVEIK
Take B3: the Kd in assay [1] was found to be 1.08 nM; in assay [2], 0.591 nM; in assay [3], 4.89 nM; in assay [4] it was 6.57 nM; in assay [5] it was 3.23 nM; in [6] it was 0.507 nM. Besides, the values for the Kd in [7], in [8] and in [9] were 5.19 nM, 2490 nM and 8840 nM, respectively.

B4: AB-007057 (antibody, V domains shown)
VH: QMQLVESGGGVVQPGRSLRLSCTASGFTFSTYAMHWVRQSPGQGLQWVAVISYHSTNKYYEDSVRGRFTISRDNSKNTLYLQMNSLRAEDTAVYYCARDGYHSSFFDFWGQGTLVTVSS
VL: DIQMTQSPSTLSASVGDRVAITCRASQSISRWLAWYQQQPGKAPKLLMSGASVLESGVPSRFSGSGSGTEFTLTISSLQPDDFATYYCQHYNSYFVTFGQGTKVEIK
With B4, the Kd in assay [1] amounted to 0.976 nM; in assay [2] it was 0.311 nM; in assay [3] it was 11.2 nM; in assay [4], 15.3 nM; in [5] it was 10.5 nM; in assay [6] it was 0.0419 nM. In addition, the Kd in [7] was determined as 40.3 nM; in assay [8], 9090 nM; in [9], 20100 nM.

B5: AB-007052 (antibody, V domains shown)
VH: QMQLVESGGGVVQPGRSLRLSCTASGFTFSTYAMHWVRQSPGQGLQWVAVISYHSNNKYYEDSVRGRFTISRDNSKNTLYLQMNSLRAEDTAVYYCARDGYSSSFFDFWGQGTLVTVSS
VL: DIQMTQSPSTLSASVGDRVAITCRASQSISRWLAWYQQQPGKAPKLLMSGASVLESGVPSRFSGSGSGTEFTLTISSLQPDDFATYYCQHYNSYFVTFGQGTKVEIK
For the molecule B5, the Kd is 0.392 nM in assay [1]; 0.0169 nM in [2]; 6.28 nM in [3]; 7.34 nM in [4]; 3.83 nM in [5]; 0.0442 nM in [6]. Also, the values for the Kd in assay [7], in [8] and in assay [9] were 6.31 nM, 2560 nM and 7140 nM, respectively.

B6: AB-007049 (antibody, V domains shown)
VH: QMQLVESGGGVVQPGRSLRLSCTASGFTFSTYAMHWVRQSPGQGLQWVAVISNHETNKYYEDSVRGRFTISRDNSKNTLYLQMNSLRAEDTAVYYCARDGYSSSFFDFWGQGTLVTVSS
VL: DIQMTQSPSTLSASVGDRVAITCRASQSISRWLAWYQQQPGKAPKLLMSGASVLESGVPSRFSGSGSGTEFTLTISSLQPDDFATYYCQHYNSYFVTFGQGTKVEIK
For B6, the Kd in assay [1] worked out at 0.576 nM; in assay [2] it was 0.326 nM; in [3], 13 nM; in assay [4], 21.2 nM; in assay [5] it was 12.3 nM; in assay [6], 0.092 nM. Besides, the Kd in [7] was found to be 25.8 nM; in assay [8], 7140 nM; in assay [9], 2950 nM.
